Reference: the supplement of paper PMC7125110
± gives the standard error. This sample holds only a part of the variants without activity.

B1: glmS ribozyme (parent)
chain: AUAAAAGCGCCAGAACUACAGAAAUGUAGUUGACGAGGAGGAGGUUUAUCGAAUUUUCGGCGGAUGCCUCCAAA

How the values were obtained:
Conditions in all cases: with glucosamine-6-phosphate
glucosamine-6-phosphate [1] = variants of: B1; assay: self-cleavage kobs at 160 uM GlcN6P; higher = faster cleavage; RNA array
Method in brief: (§1)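 Over ~14 h at 37 °C, tiles were imaged as glucosamine-6-phosphate (40 μM to 10 mM) in HEPES/KCl/Mg(OAc)2 buffer flowed across sequenced MiSeq chips. The chips carried barcoded ribozyme variants transcribed in situ by E. coli RNA polymerase and tracked with a hybridised Cy3 probe. After normalisation to baseline and to non-cleaving reference variants, one- or two-exponential decay fits of per-tile medians gave kobs. kcat and KM followed from weighted Michaelis–Menten fits across concentrations.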

glucosamine-6-phosphate [2] = variants of: B1; assay: self-cleavage kobs at 2500 uM GlcN6P; higher = faster cleavage; RNA array
Method in brief: as §1

glucosamine-6-phosphate [3] = variants of: B1; assay: self-cleavage kobs at 640 uM GlcN6P; higher = faster cleavage; RNA array
Method in brief: as §1

glucosamine-6-phosphate [4] = variants of: B1; assay: self-cleavage kobs at 10000 uM GlcN6P; higher = faster cleavage; RNA array
Method in brief: as §1

| Variant | self-cleavage kobs at 160 uM GlcN6P (glucosamine-6-phosphate [1]) | self-cleavage kobs at 2500 uM GlcN6P (glucosamine-6-phosphate [2]) | self-cleavage kobs at 640 uM GlcN6P (glucosamine-6-phosphate [3]) | self-cleavage kobs at 10000 uM GlcN6P (glucosamine-6-phosphate [4]) |
| --- | --- | --- | --- | --- |
| A15U G43U U56A C68A | 0.000115 ± 3.5e-05 s⁻¹ | 0.00532 ± 0.0014 s⁻¹ | – | – |
| A12U U46C C67A | 0.00011 ± 2.6e-05 s⁻¹ | 0.00113 ± 0.0002 s⁻¹ | – | – |
| G13A C50G | 0.000122 ± 3.1e-05 s⁻¹ | 4.08e-05 ± 1.9e-05 s⁻¹ | 0.000253 ± 0.00011 s⁻¹ | – |
| G29A A39U G40A | 7.25e-05 ± 2.4e-05 s⁻¹ | 0.000397 ± 0.0001 s⁻¹ | 0.000163 ± 5.7e-05 s⁻¹ | – |
| A15C U30A | 0.000667 ± 0.00019 s⁻¹ | 0.0188 ± 0.0047 s⁻¹ | 0.00307 ± 0.00075 s⁻¹ | 0.0299 ± 0.015 s⁻¹ |
| C16U G40C U49C G51A | < 1e-05 s⁻¹ | < 1e-05 s⁻¹ | < 1e-05 s⁻¹ | – |
| A14G G35U G60A C68G | < 1e-05 s⁻¹ | – | – | – |
| C16U U47A A53G U54A | 0.00109 ± 0.00027 s⁻¹ | 0.00464 ± 0.00094 s⁻¹ | 0.00231 ± 0.00054 s⁻¹ | – |
| A12C G37U C50G U54G | 4.97e-05 ± 2.2e-05 s⁻¹ | 9.24e-05 ± 3.8e-05 s⁻¹ | – | – |
| G29U C34U U46G U47G G63A | < 1e-05 s⁻¹ | < 1e-05 s⁻¹ | < 1e-05 s⁻¹ | – |
| C16G G59C A64C | < 1e-05 s⁻¹ | – | – | – |
| U30A G40C U49G | < 1e-05 s⁻¹ | < 1e-05 s⁻¹ | < 1e-05 s⁻¹ | – |
| A14G A33C U46G C58U G59U | < 1e-05 s⁻¹ | < 1e-05 s⁻¹ | < 1e-05 s⁻¹ | – |
| A14U G35C U49G | < 1e-05 s⁻¹ | – | – | – |
| C16G G38A | < 1e-05 s⁻¹ | – | < 1e-05 s⁻¹ | < 1e-05 s⁻¹ |
| G13C G40U G59C | < 1e-05 s⁻¹ | < 1e-05 s⁻¹ | < 1e-05 s⁻¹ | – |
| G13C A48G C71U | < 1e-05 s⁻¹ | – | – | – |
| A15C U57C G62C | < 1e-05 s⁻¹ | – | < 1e-05 s⁻¹ | – |
| A12U A14C U47A | 0.000117 ± 2.3e-05 s⁻¹ | 0.00107 ± 0.00025 s⁻¹ | 0.000593 ± 0.00011 s⁻¹ | – |
| A14U U30A A33U G51A | < 1e-05 s⁻¹ | – | – | – |
| A15G C58G G63C C68G | 0.000162 ± 4.4e-05 s⁻¹ | – | – | – |
| A12G A36U C50G A64U C68U | 6.37e-05 ± 2.6e-05 s⁻¹ | – | – | – |
| A15C A33U A36C A48C | < 1e-05 s⁻¹ | < 1e-05 s⁻¹ | < 1e-05 s⁻¹ | – |
| A15G G41U G62U | < 1e-05 s⁻¹ | < 1e-05 s⁻¹ | < 1e-05 s⁻¹ | – |
| U30C G43U | < 1e-05 s⁻¹ | < 1e-05 s⁻¹ | – | < 1e-05 s⁻¹ |
| C16A G59A C70G | 9.32e-05 ± 3.1e-05 s⁻¹ | – | – | – |
| A15C A53C C68U | < 1e-05 s⁻¹ | – | – | – |
